Patent US20030119733A1, “Compositions and methods for inhibiting hepatocyte invasion by malarial sporozoites” (New York University, priority 1992, published 2003)

Experiments:
[1] = Solid phase binding assay, analogues of sulfatide and cholesterol-3-sulfate; settings: dried into microtiter wells
Description: Solid phase binding assays: Thirty μl of lipids or steroids dissolved in methanol (20-250 μg/ml) were dried into wells of microassay plates (Cat.# 3911—Falcon—Oxnard, Calif.). The plates were then blocked with 1% BSA/PBS pH 7.4 (BSA/PBS) for 30 minutes. Wells were incubated with recombinant protein (or with parasite extract) in PBS/BSA for 1 hour, washed 3 times with BSA/PBS, incubated for 1 hour with monoclonal antibodies 2F2 or 2A10 in BSA/PBS, washed 3 times, and then incubated with (10^5 cpm/well) ^125I protein A (Amersham Corp., Arlington Hts., Ill.). In the case of the P. berghei CS protein, wells were incubated with ^125I labelled mAb 3D11. Wells were washed again and the bound radioactive protein was counted in an LKB gamma-counter (model #1260, Pharmacia, Inc., Gaithersburg, Md.). For inhibition assays, the recombinant proteins were mixed with dilutions of the various polymers in BSA/PBS, the mixture was loaded into the wells of the microtiter plates, and the binding assay performed as above. See also, Roberts, et al. J. Biol. Chem. 260:9405-9411, 1985.
1.4 nmol of sulfatide (open squares), cholesterol-3-sulfate (closed triangles), galactocerebroside I (closed circles), galactocerebroside II (open circles) and cholesterol (open triangles) were evaporated into microtiter wells and then incubated with serial dilutions of Vivax-2. […]

[2] = Localization in organs after intravenous injection (light and electron microscopy); assay type: in vivo, mouse; settings: 100 μg i.v., 5 minutes
Description: In other experiments, light and electron microscopy were used to localize CS in the various organs. The mice were injected i.v. with 100 μg of unlabeled CS27IVC or Falc-1 via the retroorbital plexus. The mice were exsanguinated five minutes after injection, the organs removed, rinsed in TBS, blotted dry, and then snap frozen in liquid nitrogen for light microscopy. For electron microscopy, the organs were cut into small pieces and fixed in a mixture of 0.1% glutaraldehyde and 4% paraformaldehyde.
Light Microscopy: The frozen tissue was embedded in Tissue Tek O.C.T. (Miles Inc., Naperville, Ill.) and cut into 5 μm sections. Sections were dried for 30 minutes, fixed for 10 minutes in 4% paraformaldehyde, and either used immediately or stored at 4° C. in PBS containing 1% BSA, 0.5% Tween-20. After blocking with the same buffer, the sections were incubated with mAb 2A10 conjugated to FITC, and examined in a fluorescence microscope.
Electron Microscopy: The fixed liver specimens were dehydrated in ethanol and embedded in Lowicryl K4M at −20° C. (Frevert et al., Infect. and Immun. 80:2349 (1992)). After UV polymerization, sections were cut with a RMC MT-7 ultramicrotome and stained by sequential incubation with 15 μg/ml mAb 2A10 and protein A gold 10 nm (PAG10) (1:30, Amersham, Arlington, Ill.). Cerami et al., Cell 70:1021 (1992). Control sections were strained only with the gold conjugate. […]

Row | Molecule | binding to analogues (gangliosides, galactocerebrosides I and II, cholesterol, other steroids) [1] | staining of kidney or other organs with FITC-labeled mAb 2A10 [2] | staining of liver with FITC-labeled mAb 2A10 [2]
1 | Falciparum-2: fragment of P. falciparum CS protein with repeats and Region II+ (residues 43-391) (protein) AGTNLYNELEMNYYGKQENWYSLKKNSRSLGENDDGNNNNGDNGREGKDEDKRDGNNEDNEKLRKPKHKKLKQPGDGNPDPNANPNVDPNANPNVDPNANPNVDPNANPNANPNANPNANPNANPNANPNANPNANPNANPNANPNANPNANPNANPNANPNANPNVDPNANPNANPNANPNANPNANPNANPNANPNANPNANPNANPNANPNANPNANPNANPNANPNANPNANPNANPNANPNKNNQGNGQGHNMPNDPNRNVDENANANNAVKNNNNEEPSDKHIEQYLKKIKNSISTEWSPCSVTCGNGIQVRIKPGSANKPKDELDYENDIEKKICKMEKCSS | not | – | –
2 | Falciparum-1: Same as Falciparum-2 minus most of Region II+ (P. falciparum residues 43-348) (protein) AGTNLYNELEMNYYGKQENWYSLKKNSRSLGENDDGNNNNGDNGREGKDEDKRDGNNEDNEKLRKPKHKKLKQPGDGNPDPNANPNVDPNANPNVDPNANPNVDPNANPNANPNANPNANPNANPNANPNANPNANPNANPNANPNANPNANPNANPNANPNANPNVDPNANPNANPNANPNANPNANPNANPNANPNANPNANPNANPNANPNANPNANPNANPNANPNANPNANPNANPNANPNKNNQGNGQGHNMPNDPNRNVDENANANNAVKNNNNEEPSDKHIEQYLKKIKNSISTEWSP | – | No staining | No staining
